Assay results taken from patent publication US20070141062A1 (published 2007).

B1: V5-epitope tagged pp32 (pp32V5) (other, not shown: small tags and cut ends)
chain: MEMGRRIHLELRNRTPSDVKELVLDNSRSNEGKLEGLTDEFEELEFLSTINVGLTSIANLPKLNKLKKLELSDNRVSGGLEVLAEKCPNLTHLNLSGNKIKDLSTIEPLKKLENLKSLDLFNCEVTNLNDYRENVFKLLPQLTYLDGYDRDDKEAPDSDAEGYVEGLDDEEEDEDEEEYDEDAQVVEDEEDEDEEEEGEEEDVSGEEEEDEEGYNDGEVDDEEDEEELGEEERGQKRKREPEDEGEDDD
notes: Expressed by transient transfection in HEK 293 (or NIH 3T3) cells and tested in cell extracts; also called V5-tagged pp32
B2: pp32Δ201-360V5 (other, not shown: small tags and cut ends)
chain: MEMGRRIHLELRNRTPSDVKELVLDNSRSNEGKLEGLTDEFEELEFLSTINVGLTSIANLPKLNKLFNCEVTNLNDYRENVFKLLPQLTYLDGYDRDDKEAPDSDAEGYVEGLDDEEEDEDEEEYDEDAQVVEDEEDEDEEEEGEEEDVSGEEEEDEEGYNDGEVDDEEDEEELGEEERGQKRKREPEDEGEDDD
notes: also called pp32D201-360V5
B3: pp32r1V5 (V5-epitope tagged pp32r1, ANP32C) (other, UniProt O43423 1-234, looked up, not shown: small tags and cut ends)
chain: MEMGRRIHSELRNRAPSDVKELALDNSRSNEGKLEALTDEFEELEFLSKINGGLTSISDLPKLKLRKLELRVSGGLEVLAEKCPNLTHLYLSGNKIKDLSTIEPLKQLENLKSLDLFNCEVTNLNDYGENVFKLLLQLTYLDSCYWDHKEAPYSDIEDHVEGLDDEEEGEHEEEYDEDAQVVEDEEGEEEEEEGEEEDVSGGDEEDEEGYNDGEVDGEEDEEELGEEERGQKRK
notes: Overexpressed in HEK 293 cells
B4: pp32r2V5 (V5-epitope tagged pp32r2, ANP32D) (other, UniProt O95626 1-131, looked up, not shown: small tags and cut ends)
chain: MEMGKWIHLELRNRTPSDVKELFLDNSQSNEGKLEGLTDEFEELELLNTINIGLTSIANLPKLNKLKKLELSSNRASVGLEVLAEKCPNLIHLNLSGNKIKDLSTIEPLKKLENLESLDLFTCEVTNLNNY
notes: as for B3

Experiments:
[1] = target: T1, WT-LP (wild-type large pocket fragment of RB, amino acids 379-928) (UniProt P06400 379-928); experiment: cotransfection in HEK 293, IP with anti-V5, western with anti-Rb (851)
T1 construct: range 379-928; Expressed by cotransfection in HEK 293 cells; Construct from Knudsen et al., 1996; also called Rb large pocket fragment
T1 sequence (looked up): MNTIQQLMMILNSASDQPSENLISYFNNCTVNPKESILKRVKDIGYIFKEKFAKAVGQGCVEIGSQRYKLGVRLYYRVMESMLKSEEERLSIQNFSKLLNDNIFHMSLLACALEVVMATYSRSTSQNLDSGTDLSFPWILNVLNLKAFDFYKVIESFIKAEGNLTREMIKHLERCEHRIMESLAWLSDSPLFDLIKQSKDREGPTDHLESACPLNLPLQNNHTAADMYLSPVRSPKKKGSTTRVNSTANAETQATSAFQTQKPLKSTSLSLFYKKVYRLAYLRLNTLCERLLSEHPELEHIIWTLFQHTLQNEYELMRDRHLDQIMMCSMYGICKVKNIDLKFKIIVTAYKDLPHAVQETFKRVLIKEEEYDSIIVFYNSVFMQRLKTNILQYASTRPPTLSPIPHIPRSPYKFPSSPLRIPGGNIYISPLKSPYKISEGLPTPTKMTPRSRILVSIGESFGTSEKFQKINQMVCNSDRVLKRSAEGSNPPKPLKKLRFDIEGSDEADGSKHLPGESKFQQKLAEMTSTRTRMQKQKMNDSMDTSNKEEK
From the text: (§1) Equal amounts of cell extracts were precipitated with anti-V5 antibody. Upper panel, the presence of WT-LP or PSM2T-LP in immunoprecipitates was probed by western blot analysis using anti-Rb antibody (851). The right-hand arrow indicates the position of the Rb large pocket fragment. The lower band present in all three lanes is immunoglobulin heavy chain, which serves as a loading control. Middle panel, anti-V5 immunoprecipitates were subjected to western blot analysis with anti-V5 antibody to confirm pp32V5 immunoprecipitation. Lower panel, cell extracts were subjected to western blotting with anti-Rb antibody (851) to confirm expression of WT-LP and PSM2T-LP.
(§2) Immunoprecipitation and Immunoblotting-1×10⁶ HEK 293 cells were seeded onto a T-150 flask. 24 hours later, cells were transfected with 15 μg of the indicated plasmids. 48 hrs post transfection, cells were harvested, washed twice with cold PBS, and lysed with MPER (Pierce) containing 1× protease inhibitor cocktail (HALT, Pierce). Lysates were centrifuged at 4° C. for 30 minutes at 16,000 g to remove particulate material. The supernatant was precleared for 2 hours with protein A-agarose (Roche). The pre-cleared cell lysates were mixed with the indicated antibodies and protein A- or protein G-agarose (Roche) and incubated at 4° C. overnight. […] The eluted materials were subsequently analyzed by immunoblotting with the indicated antibodies. […]

[2] = target: T2, PSM2T-LP (double T821A/T826A large pocket mutant of RB) (UniProt P06400 379-928); experiment: as above
T2 construct: range 379-928; Expressed by cotransfection in HEK 293 cells
T2 sequence (looked up): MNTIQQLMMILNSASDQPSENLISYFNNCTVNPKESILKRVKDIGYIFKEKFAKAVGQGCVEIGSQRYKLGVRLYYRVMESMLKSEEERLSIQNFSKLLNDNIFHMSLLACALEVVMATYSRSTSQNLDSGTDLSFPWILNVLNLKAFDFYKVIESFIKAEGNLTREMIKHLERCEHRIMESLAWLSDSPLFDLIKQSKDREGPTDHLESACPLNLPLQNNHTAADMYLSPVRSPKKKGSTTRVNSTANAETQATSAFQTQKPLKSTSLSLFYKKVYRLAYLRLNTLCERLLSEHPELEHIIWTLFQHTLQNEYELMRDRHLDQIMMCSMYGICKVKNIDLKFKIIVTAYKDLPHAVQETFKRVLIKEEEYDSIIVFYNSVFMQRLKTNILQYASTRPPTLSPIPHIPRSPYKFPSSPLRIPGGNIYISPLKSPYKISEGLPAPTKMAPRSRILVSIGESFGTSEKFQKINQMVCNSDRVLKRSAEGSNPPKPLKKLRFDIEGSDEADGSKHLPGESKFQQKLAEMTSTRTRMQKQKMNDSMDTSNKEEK
From the text: as §1, §2

[3] = target: T3, Retinoblastoma protein (Rb), endogenous in the cells used (UniProt P06400 2-928); experiment: IP with anti-Rb (G99-2005) from transfected HEK 293 extracts, anti-V5 western
T3 construct: also called endogenous Rb; total Rb
T3 sequence (looked up): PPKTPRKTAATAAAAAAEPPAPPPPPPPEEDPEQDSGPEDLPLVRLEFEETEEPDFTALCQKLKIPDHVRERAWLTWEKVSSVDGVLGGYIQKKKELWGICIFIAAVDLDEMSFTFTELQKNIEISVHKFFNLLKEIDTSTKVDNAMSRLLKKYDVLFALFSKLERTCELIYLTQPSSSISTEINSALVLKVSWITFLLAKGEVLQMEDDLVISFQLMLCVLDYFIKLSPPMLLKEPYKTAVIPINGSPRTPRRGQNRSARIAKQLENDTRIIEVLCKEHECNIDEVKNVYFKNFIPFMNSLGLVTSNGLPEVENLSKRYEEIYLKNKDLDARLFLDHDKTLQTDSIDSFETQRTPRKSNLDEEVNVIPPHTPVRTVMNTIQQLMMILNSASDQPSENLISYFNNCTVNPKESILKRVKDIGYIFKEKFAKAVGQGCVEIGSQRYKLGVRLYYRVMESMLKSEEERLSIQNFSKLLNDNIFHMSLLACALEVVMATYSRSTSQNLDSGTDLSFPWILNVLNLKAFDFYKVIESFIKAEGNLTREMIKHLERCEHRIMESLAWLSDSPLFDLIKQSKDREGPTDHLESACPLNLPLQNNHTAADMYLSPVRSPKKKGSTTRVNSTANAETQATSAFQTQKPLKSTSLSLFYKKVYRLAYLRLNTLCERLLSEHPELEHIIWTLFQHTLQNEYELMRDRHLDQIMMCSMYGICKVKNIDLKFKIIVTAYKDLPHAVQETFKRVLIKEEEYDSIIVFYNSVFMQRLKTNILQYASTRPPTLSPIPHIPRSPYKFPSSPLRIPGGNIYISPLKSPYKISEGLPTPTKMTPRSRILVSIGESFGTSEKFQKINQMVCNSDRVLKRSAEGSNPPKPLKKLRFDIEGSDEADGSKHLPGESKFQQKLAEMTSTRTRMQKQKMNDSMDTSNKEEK
Procedure: Immunoprecipitation and Immunoblotting-1×10⁶ HEK 293 cells were seeded onto a T-150 flask. 24 hours later, cells were transfected with 15 μg of the indicated plasmids. 48 hrs post transfection, cells were harvested, washed twice with cold PBS, and lysed with MPER (Pierce) containing 1× protease inhibitor cocktail (HALT, Pierce). Lysates were centrifuged at 4° C. for 30 minutes at 16,000 g to remove particulate material. The supernatant was precleared for 2 hours with protein A-agarose (Roche). The pre-cleared cell lysates were mixed with the indicated antibodies and protein A- or protein G-agarose (Roche) and incubated at 4° C. overnight. The next day, the reaction mixture was washed three times with cold PBS, boiled for 3 minutes and eluted in 2×SDS buffer. The eluted materials were subsequently analyzed by immunoblotting with the indicated antibodies.
While pp32 inhibits transformation, pp32r1 (ANP32C) and pp32r2 (ANP32D), both highly homologous to pp32 at the protein level (87.7% and 89.3% respectively) are tumorigenic (Kadkol, S. S., Brody, J. R., Pevsner, J., Bai, J., and Pasternack, G. R. (1999) Nature Med. 5, 275-279). Therefore, the possibility of an interaction between these family members and Rb was explored. pp32r1 and r2 were V5-epitope tagged and overexpressed in HEK 293 cells. HEK 293 cells were transfected with pp32V5, pp32r1V5, pp32r2V5 or LacZV5 expression vectors as indicated. Equal amounts of cell extracts were precipitated with anti-Rb (G99-2005) antibody and analysed by western blotting with anti-V5 antibody. Equal amounts of cell lysates were immunoprecipitated with anti-Rb and immunoblotted with anti-V5.

| Binder | binding result [1] | binding result [2] | binding result [3] |
| --- | --- | --- | --- |
| B1 | binds | no binding | – |
| B2 | – | – | no binding |
| B3 | – | – | no binding |
| B4 | – | – | no binding |
